Measurements: US20150344570A1 (published 2015)

Experiments:
[1] = biological target: T1, FcγRIIa R (FcγRIIa allotype with Arg at position 131), extracellular domain with C-terminal His tag (human, UniProt P12318 34-217); experiment: SPR (Biacore), antibody captured, FcγR analyte; vs GpH7-A5/GpH7-B3/GpL16-k0 = 100
T1 construct: extracellular domain; made in FreeStyle293 cells; analyte in the Biacore assay; also called FcγRIIa type R; 2aR
T1 sequence (looked up): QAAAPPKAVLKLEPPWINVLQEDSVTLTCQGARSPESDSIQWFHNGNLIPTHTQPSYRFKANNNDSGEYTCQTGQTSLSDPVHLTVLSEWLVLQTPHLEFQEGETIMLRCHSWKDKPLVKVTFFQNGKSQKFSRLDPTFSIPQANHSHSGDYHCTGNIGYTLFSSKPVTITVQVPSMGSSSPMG

[2] = biological target: T2, FcγRIIb, extracellular domain with C-terminal His tag (human, UniProt P31994 43-217); experiment: as above
T2 construct: extracellular domain; made in FreeStyle293 cells; analyte in the Biacore assay; also called 2b; FcgRIIb
T2 sequence (looked up): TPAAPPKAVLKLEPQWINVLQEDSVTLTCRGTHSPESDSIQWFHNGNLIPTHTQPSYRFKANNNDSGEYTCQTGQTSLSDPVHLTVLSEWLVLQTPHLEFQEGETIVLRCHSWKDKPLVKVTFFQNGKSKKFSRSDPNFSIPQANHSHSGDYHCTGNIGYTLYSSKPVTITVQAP

[3] = biological target: T1, FcγRIIa R (FcγRIIa allotype with Arg at …); experiment: SPR (Biacore); He/Con_2aR divided by He/Con_2b, binding to FcγRIIa R against binding to FcγRIIb
Protocol: The heterodimerized antibodies He Abs in which one of the H chains was introduced with an alteration were assayed for their binding activities to each activating FcγR and inhibitory FcγR according to the method described in Example 4. […] The activating FcγRs in FIGS. 26, 27, 28, and 29 are FcγRIa, FcγRIIa (R), FcγRIIa (H), and FcγRIIIa, respectively.
Analysis of interaction between objective antibody and the FcγR was carried out using Biacore T100 (GE Healthcare). HBS-EP+ (GE Healthcare) was used as the running buffer, and the measurement temperature was set to 25° C. Chips produced by immobilizing the antigen peptide by the amine coupling method to a Series S Sencor Chip CM5 (GE Healthcare), or alternatively, chips produced by allowing preliminarily biotinylated antigen peptides to interact with and immobilize onto a Series S Sensor Chip SA (certified) (GE Healthcare) were used. Antibodies of interest were captured onto an antigen peptide-immobilized chip, and allowed to interact to each FcγR diluted with running buffer. To regenerate and repeatedly use the chip, the antibodies captured on the chip were washed off by reacting 10 mM glycine-HCl, pH 1.5.

| Binder | He/Con_2aR [1] | He/Con_2b [2] | He_2aR/2b (IIaR/IIb) [3] [ratio] |
| --- | --- | --- | --- |
| GpH7-A5/GpH7-B3 variant G236_04F/GpL16-k0 (antibody, human IgG1, kappa, heterodimerized IgG1, mutation in one H chain only; also called He Ab) heavy 1: not shown heavy 2: not shown light: DIVMTQSPLSLPVTPGEPASISCQASESLVHSNRNTYLHWYLQKPGQSPQLLIYKVSNRFSGVPDRFSGSGSGTDFTLKISRVEAEDVGVYYCSQNTHVPPTFGQGTKVEIERTVAAPSVFIFPPSDEQLKSGTASVVCLLNNFYPREAKVQWKVDNALQSGNSQESVTEQDSKDSTYSLSSTLTLSKADYEKHKVYACEVTHQGLSSPVTKSFNRGEC | 53.1 relative (HeCon Ab = 100) | 39.3 relative (HeCon Ab = 100) | 1.35 |
| GpH7-A5/GpH7-B3 variant G236_05P/GpL16-k0 (antibody, human IgG1, kappa, heterodimerized IgG1, mutation in one H chain only; also called He Ab) heavy 1: not shown heavy 2: not shown light: DIVMTQSPLSLPVTPGEPASISCQASESLVHSNRNTYLHWYLQKPGQSPQLLIYKVSNRFSGVPDRFSGSGSGTDFTLKISRVEAEDVGVYYCSQNTHVPPTFGQGTKVEIERTVAAPSVFIFPPSDEQLKSGTASVVCLLNNFYPREAKVQWKVDNALQSGNSQESVTEQDSKDSTYSLSSTLTLSKADYEKHKVYACEVTHQGLSSPVTKSFNRGEC | 47.9 relative (HeCon Ab = 100) | 19 relative (HeCon Ab = 100) | 2.52 |
| GpH7-A5/GpH7-B3 variant L234_16H/GpL16-k0 (antibody, human IgG1, kappa, heterodimerized IgG1, mutation in one H chain only; also called He Ab) heavy 1: not shown heavy 2: not shown light: DIVMTQSPLSLPVTPGEPASISCQASESLVHSNRNTYLHWYLQKPGQSPQLLIYKVSNRFSGVPDRFSGSGSGTDFTLKISRVEAEDVGVYYCSQNTHVPPTFGQGTKVEIERTVAAPSVFIFPPSDEQLKSGTASVVCLLNNFYPREAKVQWKVDNALQSGNSQESVTEQDSKDSTYSLSSTLTLSKADYEKHKVYACEVTHQGLSSPVTKSFNRGEC | 71.8 relative (HeCon Ab = 100) | 59.4 relative (HeCon Ab = 100) | 1.21 |
| GpH7-A5/GpH7-B3 variant G236_14T/GpL16-k0 (antibody, human IgG1, kappa, heterodimerized IgG1, mutation in one H chain only; also called He Ab) heavy 1: not shown heavy 2: not shown light: DIVMTQSPLSLPVTPGEPASISCQASESLVHSNRNTYLHWYLQKPGQSPQLLIYKVSNRFSGVPDRFSGSGSGTDFTLKISRVEAEDVGVYYCSQNTHVPPTFGQGTKVEIERTVAAPSVFIFPPSDEQLKSGTASVVCLLNNFYPREAKVQWKVDNALQSGNSQESVTEQDSKDSTYSLSSTLTLSKADYEKHKVYACEVTHQGLSSPVTKSFNRGEC | 103 relative (HeCon Ab = 100) | 57.8 relative (HeCon Ab = 100) | 1.78 |
| GpH7-A5/GpH7-B3 variant G236_13S/GpL16-k0 (antibody, human IgG1, kappa, heterodimerized IgG1, mutation in one H chain only; also called He Ab) heavy 1: not shown heavy 2: not shown light: DIVMTQSPLSLPVTPGEPASISCQASESLVHSNRNTYLHWYLQKPGQSPQLLIYKVSNRFSGVPDRFSGSGSGTDFTLKISRVEAEDVGVYYCSQNTHVPPTFGQGTKVEIERTVAAPSVFIFPPSDEQLKSGTASVVCLLNNFYPREAKVQWKVDNALQSGNSQESVTEQDSKDSTYSLSSTLTLSKADYEKHKVYACEVTHQGLSSPVTKSFNRGEC | 136 relative (HeCon Ab = 100) | 96.7 relative (HeCon Ab = 100) | 1.41 |
| GpH7-A5/GpH7-B3 variant G236_07I/GpL16-k0 (antibody, human IgG1, kappa, heterodimerized IgG1, mutation in one H chain only; also called He Ab) heavy 1: not shown heavy 2: not shown light: DIVMTQSPLSLPVTPGEPASISCQASESLVHSNRNTYLHWYLQKPGQSPQLLIYKVSNRFSGVPDRFSGSGSGTDFTLKISRVEAEDVGVYYCSQNTHVPPTFGQGTKVEIERTVAAPSVFIFPPSDEQLKSGTASVVCLLNNFYPREAKVQWKVDNALQSGNSQESVTEQDSKDSTYSLSSTLTLSKADYEKHKVYACEVTHQGLSSPVTKSFNRGEC | 87.1 relative (HeCon Ab = 100) | 31 relative (HeCon Ab = 100) | 2.81 |
| GpH7-A5/GpH7-B3 variant L234_12R/GpL16-k0 (antibody, human IgG1, kappa, heterodimerized IgG1, mutation in one H chain only; also called He Ab) heavy 1: not shown heavy 2: not shown light: DIVMTQSPLSLPVTPGEPASISCQASESLVHSNRNTYLHWYLQKPGQSPQLLIYKVSNRFSGVPDRFSGSGSGTDFTLKISRVEAEDVGVYYCSQNTHVPPTFGQGTKVEIERTVAAPSVFIFPPSDEQLKSGTASVVCLLNNFYPREAKVQWKVDNALQSGNSQESVTEQDSKDSTYSLSSTLTLSKADYEKHKVYACEVTHQGLSSPVTKSFNRGEC | 29.9 relative (HeCon Ab = 100) | 18.9 relative (HeCon Ab = 100) | 1.58 |
| GpH7-A5/GpH7-B3 variant L234_01G/GpL16-k0 (antibody, human IgG1, kappa, heterodimerized IgG1, mutation in one H chain only; also called He Ab) heavy 1: not shown heavy 2: not shown light: DIVMTQSPLSLPVTPGEPASISCQASESLVHSNRNTYLHWYLQKPGQSPQLLIYKVSNRFSGVPDRFSGSGSGTDFTLKISRVEAEDVGVYYCSQNTHVPPTFGQGTKVEIERTVAAPSVFIFPPSDEQLKSGTASVVCLLNNFYPREAKVQWKVDNALQSGNSQESVTEQDSKDSTYSLSSTLTLSKADYEKHKVYACEVTHQGLSSPVTKSFNRGEC | 62.3 relative (HeCon Ab = 100) | 50.7 relative (HeCon Ab = 100) | 1.23 |
| GpH7-A5/GpH7-B3 variant L234_11K/GpL16-k0 (antibody, human IgG1, kappa, heterodimerized IgG1, mutation in one H chain only; also called He Ab) heavy 1: not shown heavy 2: not shown light: DIVMTQSPLSLPVTPGEPASISCQASESLVHSNRNTYLHWYLQKPGQSPQLLIYKVSNRFSGVPDRFSGSGSGTDFTLKISRVEAEDVGVYYCSQNTHVPPTFGQGTKVEIERTVAAPSVFIFPPSDEQLKSGTASVVCLLNNFYPREAKVQWKVDNALQSGNSQESVTEQDSKDSTYSLSSTLTLSKADYEKHKVYACEVTHQGLSSPVTKSFNRGEC | 26.8 relative (HeCon Ab = 100) | 16.2 relative (HeCon Ab = 100) | 1.66 |
| GpH7-A5/GpH7-B3 variant G236_08L/GpL16-k0 (antibody, human IgG1, kappa, heterodimerized IgG1, mutation in one H chain only; also called He Ab) heavy 1: not shown heavy 2: not shown light: DIVMTQSPLSLPVTPGEPASISCQASESLVHSNRNTYLHWYLQKPGQSPQLLIYKVSNRFSGVPDRFSGSGSGTDFTLKISRVEAEDVGVYYCSQNTHVPPTFGQGTKVEIERTVAAPSVFIFPPSDEQLKSGTASVVCLLNNFYPREAKVQWKVDNALQSGNSQESVTEQDSKDSTYSLSSTLTLSKADYEKHKVYACEVTHQGLSSPVTKSFNRGEC | 65.8 relative (HeCon Ab = 100) | 26.8 relative (HeCon Ab = 100) | 2.45 |
| GpH7-A5/GpH7-B3 variant G236_06M/GpL16-k0 (antibody, human IgG1, kappa, heterodimerized IgG1, mutation in one H chain only; also called He Ab) heavy 1: not shown heavy 2: not shown light: DIVMTQSPLSLPVTPGEPASISCQASESLVHSNRNTYLHWYLQKPGQSPQLLIYKVSNRFSGVPDRFSGSGSGTDFTLKISRVEAEDVGVYYCSQNTHVPPTFGQGTKVEIERTVAAPSVFIFPPSDEQLKSGTASVVCLLNNFYPREAKVQWKVDNALQSGNSQESVTEQDSKDSTYSLSSTLTLSKADYEKHKVYACEVTHQGLSSPVTKSFNRGEC | 57.3 relative (HeCon Ab = 100) | 45.5 relative (HeCon Ab = 100) | 1.26 |
| GpH7-A5/GpH7-B3 variant L234_05P/GpL16-k0 (antibody, human IgG1, kappa, heterodimerized IgG1, mutation in one H chain only; also called He Ab) heavy 1: not shown heavy 2: not shown light: DIVMTQSPLSLPVTPGEPASISCQASESLVHSNRNTYLHWYLQKPGQSPQLLIYKVSNRFSGVPDRFSGSGSGTDFTLKISRVEAEDVGVYYCSQNTHVPPTFGQGTKVEIERTVAAPSVFIFPPSDEQLKSGTASVVCLLNNFYPREAKVQWKVDNALQSGNSQESVTEQDSKDSTYSLSSTLTLSKADYEKHKVYACEVTHQGLSSPVTKSFNRGEC | 89.6 relative (HeCon Ab = 100) | 72.9 relative (HeCon Ab = 100) | 1.23 |
| GpH7-A5/GpH7-B3 variant G236_12R/GpL16-k0 (antibody, human IgG1, kappa, heterodimerized IgG1, mutation in one H chain only; also called He Ab) heavy 1: not shown heavy 2: not shown light: DIVMTQSPLSLPVTPGEPASISCQASESLVHSNRNTYLHWYLQKPGQSPQLLIYKVSNRFSGVPDRFSGSGSGTDFTLKISRVEAEDVGVYYCSQNTHVPPTFGQGTKVEIERTVAAPSVFIFPPSDEQLKSGTASVVCLLNNFYPREAKVQWKVDNALQSGNSQESVTEQDSKDSTYSLSSTLTLSKADYEKHKVYACEVTHQGLSSPVTKSFNRGEC | 24.1 relative (HeCon Ab = 100) | 6.8 relative (HeCon Ab = 100) | 3.55 |
| GpH7-A5/GpH7-B3 variant L234_02A/GpL16-k0 (antibody, human IgG1, kappa, heterodimerized IgG1, mutation in one H chain only; also called He Ab) heavy 1: not shown heavy 2: not shown light: DIVMTQSPLSLPVTPGEPASISCQASESLVHSNRNTYLHWYLQKPGQSPQLLIYKVSNRFSGVPDRFSGSGSGTDFTLKISRVEAEDVGVYYCSQNTHVPPTFGQGTKVEIERTVAAPSVFIFPPSDEQLKSGTASVVCLLNNFYPREAKVQWKVDNALQSGNSQESVTEQDSKDSTYSLSSTLTLSKADYEKHKVYACEVTHQGLSSPVTKSFNRGEC | 79.6 relative (HeCon Ab = 100) | 64.9 relative (HeCon Ab = 100) | 1.23 |
| GpH7-A5/GpH7-B3 variant L234_14T/GpL16-k0 (antibody, human IgG1, kappa, heterodimerized IgG1, mutation in one H chain only; also called He Ab) heavy 1: not shown heavy 2: not shown light: DIVMTQSPLSLPVTPGEPASISCQASESLVHSNRNTYLHWYLQKPGQSPQLLIYKVSNRFSGVPDRFSGSGSGTDFTLKISRVEAEDVGVYYCSQNTHVPPTFGQGTKVEIERTVAAPSVFIFPPSDEQLKSGTASVVCLLNNFYPREAKVQWKVDNALQSGNSQESVTEQDSKDSTYSLSSTLTLSKADYEKHKVYACEVTHQGLSSPVTKSFNRGEC | 77.5 relative (HeCon Ab = 100) | 62.5 relative (HeCon Ab = 100) | 1.24 |
